A short description of this data set: self-splicing fitness, log relative to wild type (ln ratio); higher = more splicing; Tetrahymena group I intron in knt gene, E. coli kanamycin selection, DiMSum; sequences stand for … in CUCUCU…GGAGGGAAAAGUUAUCAGGCAUGCACCUGGUAGCUAGUCUUUAAACCAAUAGAUUGCAUCGGUUUAAAAGGCAAGACCGUCAAAUUGCGGGAAAGGGGUCAACAGCCGUUCAGUACCAAGUCUCAGGGGAAACUUUGAGAUGGCCUUGCAAAGGGUAUGGUAAUAAGCUGACGGACAUGGUCCUAACCACGCAGCCAAGUCCUAAGUCAACAGAUCUUCUGUUGAUAUGGAUGCAGUUCACAGACUAAAUGUCGGUCGGGGAAGAUGUAUUCUUCUCAUAAGAUAUAGUCGGACCUCUCCUUAAUGGGAGCUAGCGGAUGAAGUGAUGCAACACUGGAGCCGCUGGGAACUAAUUUGUAUGCGAAAGUAUAUUGAUUAGUUUUGGAGUACUCGUGGUCG
An outline of the steps: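 Six replicate transformations of E. coli BL21(DE3) with a pET-22b(+) library were grown overnight at 37°C or 30°C. The library randomised all eight P1ex-region intron nucleotides, the intron lying in the knt kanamycin-resistance gene, and plates were LB agar with or without 25 μg/mL kanamycin plus 100 μg/mL carbenicillin, 50 μM IPTG and 0.2% rhamnose. Pooled colonies were amplicon-sequenced on an Illumina HiSeq 2500, and fitness is the DiMSum error-weighted combination of wild-type-normalised replicate fold changes, kanamycin versus none.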

37 sequences from the supplement of paper PMC7877785 can be followed below.

± gives the uncertainty stated by the source.

Consider AUCUAGCAAUAUUACGGCCC, for which the “self-splicing fitness (ln)” value runs as follows: (30 °C) 0.132 ± 0.2; (37 °C) -0.0846 ± 0.33.

On to AGCCAGCAAUAUUACGAGGG, for which the “self-splicing fitness (ln)” value is -2.58 ± 0.15 (30 °C) and -2.38 ± 0.17 (37 °C).

With GUCAAGCAAUAUUACGAUCG, the “self-splicing fitness (ln)” value (30 °C) was -3.39 ± 0.19 and the “self-splicing fitness (ln)” value (37 °C) was -2.88 ± 0.23.

As for GCGCAGCAAUAUUACGAAGU, the “self-splicing fitness (ln)” value is -0.905 ± 0.13 (30 °C) and -0.493 ± 0.16 (37 °C).

As to UAAGAGCAAUAUUACGCCGC, the “self-splicing fitness (ln)” value (30 °C) is -2.81 ± 0.41.

Regarding CGCAAGCAAUAUUACGCCCA, the “self-splicing fitness (ln)” value reads like this: (30 °C) -0.622 ± 0.17; (37 °C) -0.291 ± 0.16.

As to GAGGAGCAAUAUUACGGUUA, the “self-splicing fitness (ln)” value by setting is: (30 °C) -2.45 ± 0.28; (37 °C) -2.2 ± 0.3.

As to UUAAAGCAAUAUUACGGUCG, the “self-splicing fitness (ln)” value worked out at 0.224 ± 0.082 (30 °C) and 0.441 ± 0.095 (37 °C).

On to UUCUAGCAAUAUUACGCAAG, for which the “self-splicing fitness (ln)” value reads like this: (30 °C) -2.26 ± 0.35; (37 °C) -0.437 ± 0.34.

Take CGCAAGCAAUAUUACGAACU: the “self-splicing fitness (ln)” value by setting is: (30 °C) -0.966 ± 0.065; (37 °C) -0.369 ± 0.076.

On to ACAAAGCAAUAUUACGUAGC, for which the “self-splicing fitness (ln)” value (30 °C) was -2.35 ± 0.086 and the “self-splicing fitness (ln)” value (37 °C) is -2.01 ± 0.12.

For the sequence UUGAAGCAAUAUUACGUCCA, the “self-splicing fitness (ln)” value turned out to be 0.231 ± 0.094 (30 °C) and 0.472 ± 0.12 (37 °C).

Consider GAUCAGCAAUAUUACGACAU, for which the “self-splicing fitness (ln)” value by setting is: (30 °C) -0.0993 ± 0.012; (37 °C) 0.102 ± 0.032.

Take AGCAAGCAAUAUUACGGCCC: the “self-splicing fitness (ln)” value by setting is: (30 °C) 0.104 ± 0.19; (37 °C) -0.363 ± 0.28.

For the sequence CUCUAGCAAUAUUACGGACA, the “self-splicing fitness (ln)” value (30 °C) was -2.52 ± 0.47 and the “self-splicing fitness (ln)” value (37 °C) is -2.66 ± 0.4.

Turning to GCUGAGCAAUAUUACGAUUC, the “self-splicing fitness (ln)” value (30 °C) is -0.602 ± 0.1 and the “self-splicing fitness (ln)” value (37 °C) was -0.665 ± 0.11.

On to CCGCAGCAAUAUUACGCAAU, for which the “self-splicing fitness (ln)” value reads like this: (30 °C) -3.95 ± 0.18; (37 °C) -3.67 ± 0.27.

Consider CGUAAGCAAUAUUACGGCAA, for which the “self-splicing fitness (ln)” value (30 °C) is -2.37 ± 0.25 and the “self-splicing fitness (ln)” value (37 °C) was -1.68 ± 0.28.

Take UCUCAGCAAUAUUACGAUGU: the “self-splicing fitness (ln)” value (30 °C) was -1.07 ± 0.09 and the “self-splicing fitness (ln)” value (37 °C) was -0.224 ± 0.12.

For GUCUAGCAAUAUUACGACCG, the “self-splicing fitness (ln)” value (30 °C) is -1.42 ± 0.4 and the “self-splicing fitness (ln)” value (37 °C) was -2.17 ± 0.33.

For UGUUAGCAAUAUUACGAUUU, the “self-splicing fitness (ln)” value is -0.79 ± 0.11 (30 °C) and -1.55 ± 0.14 (37 °C).

On to GAGGAGCAAUAUUACGGCAA, for which the “self-splicing fitness (ln)” value is -2.41 ± 0.21 (30 °C) and -0.766 ± 0.26 (37 °C).

Take AACGAGCAAUAUUACGCGCG: the “self-splicing fitness (ln)” value was -1.81 ± 0.28 (30 °C) and -1.75 ± 0.28 (37 °C).

In the case of UGUAAGCAAUAUUACGCAUA, the “self-splicing fitness (ln)” value (30 °C) is -0.865 ± 0.18 and the “self-splicing fitness (ln)” value (37 °C) was -1.69 ± 0.17.

As to AAAAAGCAAUAUUACGAGAU, the “self-splicing fitness (ln)” value (30 °C) was -2.85 ± 0.13 and the “self-splicing fitness (ln)” value (37 °C) was -1.86 ± 0.2.

Regarding GCGGAGCAAUAUUACGGUUA, the “self-splicing fitness (ln)” value is -2.84 ± 0.29 (30 °C) and -0.698 ± 0.21 (37 °C).

For UGUAAGCAAUAUUACGAGCG, the “self-splicing fitness (ln)” value by setting is: (30 °C) 0.195 ± 0.1; (37 °C) 0.758 ± 0.14.

CCAUAGCAAUAUUACGGGUC: the “self-splicing fitness (ln)” value (30 °C) is -3.41 ± 0.35 and the “self-splicing fitness (ln)” value (37 °C) was -2.23 ± 0.23.

Take CCGAAGCAAUAUUACGUAGU: the “self-splicing fitness (ln)” value by setting is: (30 °C) -3.44 ± 0.17; (37 °C) -3.21 ± 0.23.

For CUACAGCAAUAUUACGUUGA, the “self-splicing fitness (ln)” value (30 °C) is -3.13 ± 0.17 and the “self-splicing fitness (ln)” value (37 °C) is -3.35 ± 0.21.

With CCUAAGCAAUAUUACGAUCU, the “self-splicing fitness (ln)” value reads like this: (30 °C) -3.39 ± 0.35; (37 °C) -3.07 ± 0.28.

For the sequence UUAGAGCAAUAUUACGGGGA, the “self-splicing fitness (ln)” value was -2.48 ± 0.21 (30 °C) and -1 ± 0.2 (37 °C).

As for ACCUAGCAAUAUUACGCCUU, the “self-splicing fitness (ln)” value is -1.43 ± 0.098 (30 °C) and 0.204 ± 0.12 (37 °C).

For the sequence GUCCAGCAAUAUUACGUGGA, the “self-splicing fitness (ln)” value reads like this: (30 °C) -3.34 ± 0.21; (37 °C) -1.91 ± 0.19.

Consider CCUAAGCAAUAUUACGAGGU, for which the “self-splicing fitness (ln)” value was -4.68 ± 0.25 (30 °C) and -3.38 ± 0.18 (37 °C).

In the case of UAGAAGCAAUAUUACGCACA, the “self-splicing fitness (ln)” value reads like this: (30 °C) -0.416 ± 0.098; (37 °C) -0.144 ± 0.16.

For UCGCAGCAAUAUUACGUCGG, the “self-splicing fitness (ln)” value runs as follows: (30 °C) -2.74 ± 0.18; (37 °C) -1.79 ± 0.19.
